# According to PMC8847575, “HSL1 and BAM1/2 impact epidermal cell development by sensing distinct signaling peptides” (Nature Communications, 2022):
# Several values for one entry are separate records, joined by “and”; a condition that tells them apart may be missing. Identical values can stand only once. Like-named read-outs stand apart in the source and are kept apart here. Ends that are not written are not given here.
# Legend:
# [1] = biological target: T1, biotinylated HSL1 ectodomain with Avi-tag (Arabidopsis, UniProt Q9SGP2 17-618, biotin on the Avi-tag (BirA)); experiment: GCI
# T1 chain: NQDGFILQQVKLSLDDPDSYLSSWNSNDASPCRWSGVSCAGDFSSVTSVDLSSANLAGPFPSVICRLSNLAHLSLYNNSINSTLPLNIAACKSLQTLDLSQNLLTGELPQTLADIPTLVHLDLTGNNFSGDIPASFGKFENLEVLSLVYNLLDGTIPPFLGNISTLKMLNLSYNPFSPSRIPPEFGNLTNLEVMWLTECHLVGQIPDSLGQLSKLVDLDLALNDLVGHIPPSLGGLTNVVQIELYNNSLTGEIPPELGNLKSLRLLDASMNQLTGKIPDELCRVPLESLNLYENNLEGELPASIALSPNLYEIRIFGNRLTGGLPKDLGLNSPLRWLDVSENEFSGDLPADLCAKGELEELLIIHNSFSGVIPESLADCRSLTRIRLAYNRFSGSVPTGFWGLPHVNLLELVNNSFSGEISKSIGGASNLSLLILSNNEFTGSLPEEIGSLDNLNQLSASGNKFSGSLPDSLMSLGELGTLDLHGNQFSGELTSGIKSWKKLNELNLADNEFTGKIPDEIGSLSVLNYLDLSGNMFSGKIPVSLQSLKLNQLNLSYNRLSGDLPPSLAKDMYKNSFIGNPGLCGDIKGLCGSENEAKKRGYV
# [2] = biological target: T1, biotinylated HSL1 ectodomain with …
# [3] = biological target: T1, biotinylated HSL1 ectodomain with …; experiment: GCI
# [4] = biological target: T2, HSL1 (HAESA-LIKE 1) ectodomain (Arabidopsis, UniProt Q9SGP2 17-618); experiment: ITC
# T2 chain: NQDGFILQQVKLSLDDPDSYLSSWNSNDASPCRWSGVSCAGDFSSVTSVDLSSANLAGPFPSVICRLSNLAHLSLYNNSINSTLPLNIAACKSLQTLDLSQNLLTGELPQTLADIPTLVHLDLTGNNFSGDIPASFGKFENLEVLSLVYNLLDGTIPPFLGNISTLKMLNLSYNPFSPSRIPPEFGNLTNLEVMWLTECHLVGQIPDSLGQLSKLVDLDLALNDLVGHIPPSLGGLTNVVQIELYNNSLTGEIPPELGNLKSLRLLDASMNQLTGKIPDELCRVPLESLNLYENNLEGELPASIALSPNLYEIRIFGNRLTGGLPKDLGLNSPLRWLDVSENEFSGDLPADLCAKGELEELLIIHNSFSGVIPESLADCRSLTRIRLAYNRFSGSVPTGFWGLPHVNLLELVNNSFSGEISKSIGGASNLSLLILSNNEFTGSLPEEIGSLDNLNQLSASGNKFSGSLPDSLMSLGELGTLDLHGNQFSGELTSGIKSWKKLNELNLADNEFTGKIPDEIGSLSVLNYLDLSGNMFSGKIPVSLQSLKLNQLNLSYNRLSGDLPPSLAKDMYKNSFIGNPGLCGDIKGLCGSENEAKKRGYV
# [5] = biological target: T1, biotinylated HSL1 ectodomain with …
# [6] = biological target: T3, BAM1 (BARELY ANY MERISTEM 1) ectodomain (Arabidopsis, UniProt O49545 20-637); experiment: ITC
# T3 chain: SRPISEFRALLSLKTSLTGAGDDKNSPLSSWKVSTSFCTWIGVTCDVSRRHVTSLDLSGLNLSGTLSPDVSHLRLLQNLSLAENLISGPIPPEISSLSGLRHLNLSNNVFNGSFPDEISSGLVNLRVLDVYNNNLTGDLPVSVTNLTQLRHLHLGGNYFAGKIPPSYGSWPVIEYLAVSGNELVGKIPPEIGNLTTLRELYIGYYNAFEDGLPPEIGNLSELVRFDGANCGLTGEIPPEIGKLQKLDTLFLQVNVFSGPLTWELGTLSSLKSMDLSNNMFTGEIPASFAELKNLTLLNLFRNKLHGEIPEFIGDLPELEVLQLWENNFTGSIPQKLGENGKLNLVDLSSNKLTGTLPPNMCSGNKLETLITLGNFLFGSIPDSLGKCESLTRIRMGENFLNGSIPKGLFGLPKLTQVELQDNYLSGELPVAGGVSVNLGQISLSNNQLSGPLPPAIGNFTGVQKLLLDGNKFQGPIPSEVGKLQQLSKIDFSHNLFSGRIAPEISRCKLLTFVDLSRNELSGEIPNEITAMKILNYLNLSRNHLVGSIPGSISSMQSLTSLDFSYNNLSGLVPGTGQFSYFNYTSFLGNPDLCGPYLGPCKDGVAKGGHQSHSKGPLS
Binder,koff [1] [s⁻¹],koff [2],Kd [3] [nM],Kd [4] [nM],Kd [5],Kd [6] [nM]
"PVPTSGPSRKHN (not fully specified; also: conserved central hydroxyproline, position not given here) [IDL3 (IDA-LIKE 3) mature peptide]",0.55,0.59 s⁻¹ and 0.49 s⁻¹,800,690,608 nM and 1000 nM,
"YVPVPASGPSRKHN (also: conserved central hydroxyproline, position not given here) [IDL2 (IDA-LIKE 2) mature peptide]",,,,121,,
"YVPIPPSAPSKRHN (also: hydroxyproline at Pro64 (precursor numbering), position in chain not settled) [IDA (INFLORESCENCE DEFICIENT IN ABSCISSION) mature peptide]",0.127,0.15 s⁻¹ and 0.12 s⁻¹,580,400,655 nM and 422 nM,
"YVLVPPSGPSMRHN (not fully specified; also: conserved central hydroxyproline, position not given here) [IDL1 (IDA-LIKE 1) mature peptide]",,,,590,,
PLVPSGPNPLHN [CLE9 variant with the first residue substituted by the corresponding one of IDA],,,,,,91
RLVPSAPSKRHN [IDA^P58RI59LP60V peptide],,,,,,980
PLPPSGPNPLHN (also: Hyp112 and Hyp115 presumed as in wild-type) [CLE9^R109PV111P],,,,,,2240
